According to paper PMC4635314, “Insights into Collagen Uptake by C-type Mannose Receptors from the Crystal Structure of Endo180 Domains 1–4” (Structure(London, England:1993), 2015):

Assays:
[1] = target: T1, type I collagen (native, triple-helical; rat tail) (rat, UniProt P02454 152-1207; P02466 86-1125); test: ELISA; solid-phase binding assay: collagen or gelatin coated at 10 μg/ml on Nunc MaxiSorp plates; Fc-tagged Endo180 proteins in PBS with 0.1 mg/ml κ-casein and 0.05% Tween 20 added for 2 hr (titration, or fixed 1 μM in Figure 6A); detected with anti-human IgG-HRP, 492 nm; single-site fit; conditions: both partners purified
T1 construct: collagen alpha-1(I) chain, rat; collagen alpha-2(I) chain, rat; also called native collagen; rat-tail type I collagen; source: bought: Sigma (rat-tail type I collagen)
T1 sequence (P02454 152-1207, chain 1 of 2): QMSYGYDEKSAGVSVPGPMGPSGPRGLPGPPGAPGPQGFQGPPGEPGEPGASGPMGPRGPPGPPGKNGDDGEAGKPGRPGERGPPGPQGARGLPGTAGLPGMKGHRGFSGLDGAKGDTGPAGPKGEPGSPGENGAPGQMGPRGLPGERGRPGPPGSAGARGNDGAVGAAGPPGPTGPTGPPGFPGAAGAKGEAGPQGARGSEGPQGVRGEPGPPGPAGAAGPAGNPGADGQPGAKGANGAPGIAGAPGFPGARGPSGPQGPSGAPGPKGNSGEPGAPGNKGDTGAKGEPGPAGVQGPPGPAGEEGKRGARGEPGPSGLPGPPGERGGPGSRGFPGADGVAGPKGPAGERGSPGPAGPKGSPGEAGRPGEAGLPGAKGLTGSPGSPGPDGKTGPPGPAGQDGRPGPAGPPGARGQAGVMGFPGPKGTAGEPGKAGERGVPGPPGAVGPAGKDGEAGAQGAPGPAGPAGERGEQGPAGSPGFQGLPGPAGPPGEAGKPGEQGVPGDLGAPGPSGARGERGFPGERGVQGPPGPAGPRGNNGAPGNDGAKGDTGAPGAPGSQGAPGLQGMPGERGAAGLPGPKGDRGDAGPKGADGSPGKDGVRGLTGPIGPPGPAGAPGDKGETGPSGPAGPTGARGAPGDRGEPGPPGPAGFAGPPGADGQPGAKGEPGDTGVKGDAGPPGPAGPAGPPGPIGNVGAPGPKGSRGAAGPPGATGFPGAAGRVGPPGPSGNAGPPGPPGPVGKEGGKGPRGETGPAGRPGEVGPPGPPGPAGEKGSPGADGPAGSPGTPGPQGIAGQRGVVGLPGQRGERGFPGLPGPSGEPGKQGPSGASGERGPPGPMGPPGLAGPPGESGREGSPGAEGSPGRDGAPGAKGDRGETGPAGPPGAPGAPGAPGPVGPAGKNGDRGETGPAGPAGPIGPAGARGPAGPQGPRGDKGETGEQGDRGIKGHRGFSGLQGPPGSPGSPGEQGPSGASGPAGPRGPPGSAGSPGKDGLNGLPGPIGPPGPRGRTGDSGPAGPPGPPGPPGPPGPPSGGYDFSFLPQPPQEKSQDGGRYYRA
T1 sequence (P02466 86-1125, chain 2 of 2): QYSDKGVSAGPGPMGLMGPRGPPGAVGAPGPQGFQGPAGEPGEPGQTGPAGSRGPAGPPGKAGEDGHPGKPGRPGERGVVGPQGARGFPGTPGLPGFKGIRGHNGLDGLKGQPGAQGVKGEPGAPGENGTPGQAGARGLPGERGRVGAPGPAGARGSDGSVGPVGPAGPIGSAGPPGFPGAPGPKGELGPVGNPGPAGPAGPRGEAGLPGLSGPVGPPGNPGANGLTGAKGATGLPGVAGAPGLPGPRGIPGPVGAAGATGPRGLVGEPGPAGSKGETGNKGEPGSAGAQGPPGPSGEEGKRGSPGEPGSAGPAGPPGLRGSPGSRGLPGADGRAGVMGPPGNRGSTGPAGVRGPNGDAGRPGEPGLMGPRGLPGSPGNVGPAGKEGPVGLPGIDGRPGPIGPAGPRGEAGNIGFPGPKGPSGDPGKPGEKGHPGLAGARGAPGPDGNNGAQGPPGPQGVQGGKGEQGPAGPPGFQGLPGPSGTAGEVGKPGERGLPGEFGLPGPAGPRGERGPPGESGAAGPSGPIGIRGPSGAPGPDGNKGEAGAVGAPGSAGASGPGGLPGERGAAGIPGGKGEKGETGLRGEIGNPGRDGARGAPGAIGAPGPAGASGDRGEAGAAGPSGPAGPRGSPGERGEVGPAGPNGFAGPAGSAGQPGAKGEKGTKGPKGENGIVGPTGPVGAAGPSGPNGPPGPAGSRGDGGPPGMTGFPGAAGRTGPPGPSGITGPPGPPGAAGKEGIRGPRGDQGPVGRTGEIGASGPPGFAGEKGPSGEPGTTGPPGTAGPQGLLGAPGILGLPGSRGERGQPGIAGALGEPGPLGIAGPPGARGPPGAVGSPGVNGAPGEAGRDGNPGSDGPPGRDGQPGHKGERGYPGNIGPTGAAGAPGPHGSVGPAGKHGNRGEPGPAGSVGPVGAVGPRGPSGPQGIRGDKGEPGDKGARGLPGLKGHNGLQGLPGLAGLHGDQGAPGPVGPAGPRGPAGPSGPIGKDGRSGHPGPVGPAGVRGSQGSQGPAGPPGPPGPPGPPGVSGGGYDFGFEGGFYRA

[2] = target: T2, gelatin (heat-denatured rat-tail type I collagen) (rat, UniProt P02454 152-1207; P02466 86-1125); test: as above; conditions: both partners purified
T2 construct: collagen alpha-1(I) chain, rat, heat-denatured; collagen alpha-2(I) chain, rat, heat-denatured; Same chains as m3 but denatured (unfolded single chains) before coating or coupling; also called denatured collagen; source: bought: Sigma (rat-tail type I collagen), 1 mg/ml in 100 mM acetic acid heated to 67°C for 30 min
T2 sequence (P02454 152-1207, chain 1 of 2): as the sequence (P02454 152-1207, chain 1 of 2) above
T2 sequence (P02466 86-1125, chain 2 of 2): as the sequence (P02466 86-1125, chain 2 of 2) above

Kd [1] | Kd [2] | Binder
3700 ± 430 nM | 2200 ± 150 nM | Endo180 D3-4-Fc (Fc fusion, human, Endo180 (uPARAP), human, domains 3-4 (CTL1, CTL2), residues 231-513 of UniProt Q9UBG0; also called D3-4-Fc construct; source: HEK293 c18, transfected, secreted into serum-free medium, purified (protein A); not shown: Fc (IgG2), C-terminal, kept) APLAKSNDCETFWDKDQLTDSCYQFNFQSTLSWREAWASCEQQGADLLSITEIHEQTYINGLLTGYSSTLWIGLNDLDTSGGWQWSDNSPLKYLNWESDQPDNPSEENCGVIRTESSGGWQNRDCSIALPYVCKKKPNATAEPTPPDRWANVKVECEPSWQPFQGHCYRLQAEKRSWQESKKACLRGGGDLVSIHSMAELEFITKQIKQEVEELWIGLNDLKLQMNFEWSDGSLVSFTHWHPFEPNNFRDSLEDCVTIWGPEGRWNDSPCNQSLPSICKKAGQLSQG
2500 ± 250 nM | 420 ± 30 nM | Endo180 D1-4-Fc (dimeric Fc-tagged Endo180 domains 1-4) (Fc fusion, natively glycosylated (predicted N-linked sites Asn69, Asn102, Asn140, Asn364, Asn497)) APLADAALPEPNVFLIFSHGLQGCLEAQGGQVRVTPACNTSLPAQRWKWVSRNRLFNLGTMQCLGTGWPGTNTTASLGMYECDREALNLRWHCRTLGDQLSLLLGARTSNISKPGTLERGDQTRSGQWRIYGSEEDLCALPYHEVYTIQGNSHGKPCTIPFKYDNQWFHGCTSTGREDGHLWCATTQDYGKDERWGFCPIKSNDCETFWDKDQLTDSCYQFNFQSTLSWREAWASCEQQGADLLSITEIHEQTYINGLLTGYSSTLWIGLNDLDTSGGWQWSDNSPLKYLNWESDQPDNPSEENCGVIRTESSGGWQNRDCSIALPYVCKKKPNATAEPTPPDRWANVKVECEPSWQPFQGHCYRLQAEKRSWQESKKACLRGGGDLVSIHSMAELEFITKQIKQEVEELWIGLNDLKLQMNFEWSDGSLVSFTHWHPFEPNNFRDSLEDCVTIWGPEGRWNDSPCNQSLPSICKKAGQLSQG
